Reference: PMC8978939, “VHL-P138R and VHL-L163R Novel Variants: Mechanisms of VHL Pathogenicity Involving HIF-Dependent and HIF-Independent Actions” (Frontiers in Endocrinology, 2022)

What was measured:
VHL-P138R-Venus = molecular target: T1, VHL-P138R-Venus (human, UniProt P40337 1-213, P138R); test: co-IP; GFP-Trap_A kit on 1 mg protein from 786-0 cell lines stably expressing VHL-Venus (WT, P138R, L163R) or GFP; Western blot for Elongin B and Elongin C; band ratios Elongin/pVHL normalised to WT set as 1; details: partners not purified
T1 construct: von Hippel-Lindau protein (pVHL), human, patient variant P138R (CCA to CGA) made by site-directed mutagenesis of VHL-WT-Venus-Retro; Variant found in patients with VHL disease (type 2B); also called P138R VHL-Venus; P138R pVHL

VHL-L163R-Venus = molecular target: T2, VHL-L163R-Venus (human, UniProt P40337 1-213, L163R); test: as above; details: partners not purified
T2 construct: von Hippel-Lindau protein (pVHL), human, patient variant L163R (CTC to CGC) made by site-directed mutagenesis of VHL-WT-Venus-Retro; Variant found in patients with VHL disease (type 2C); also called L163R VHL-Venus; L163R pVHL
T2 sequence (P40337 whole entry L163R): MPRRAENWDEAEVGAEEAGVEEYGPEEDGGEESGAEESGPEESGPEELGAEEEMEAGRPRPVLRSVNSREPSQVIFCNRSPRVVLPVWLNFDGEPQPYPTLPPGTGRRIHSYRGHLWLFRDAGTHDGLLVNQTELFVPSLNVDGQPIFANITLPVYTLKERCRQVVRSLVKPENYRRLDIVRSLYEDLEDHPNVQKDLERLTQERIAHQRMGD

T1 sequence (P40337 whole entry P138R): as the sequence (P40337 whole entry L163R) above, with P138R, R163L counted along it

B1: Elongin B (natural protein, human (endogenous in 786-0), UniProt Q15370 1-118, looked up)
chain: MDVFLMIRRHKTTIFTDAKESSTVFELKRIVEGILKRPPDEQRLYKDDQLLDDGKTLGECGFTSQTARPQAPATVGLAFRADDTFEALCIEPFSSPPELPDVMKPQDSGSSANEQAVQ
notes: also called EloB; source: endogenous, 786-0 RCC cell lysate
VHL-P138R-Venus
  ratio Elongin B/pVHL, normalised to WT pVHL set as 1: ~0.6
VHL-L163R-Venus
  ratio Elongin B/pVHL, normalised to WT pVHL set as 1: 0.25
